Laboratory results reported in patent publication US20220281951A1 (ACCELERON PHARMA, published 2022).
Like-named read-outs stand apart in the source and are kept apart here.

T1: GDF-11 (UniProt O95390 299-407)
T1 sequence (looked up): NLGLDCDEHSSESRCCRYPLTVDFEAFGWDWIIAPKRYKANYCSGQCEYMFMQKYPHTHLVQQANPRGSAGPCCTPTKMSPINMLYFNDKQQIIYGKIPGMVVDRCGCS

T2: Activin A (UniProt P08476 311-426)
T2 sequence (looked up): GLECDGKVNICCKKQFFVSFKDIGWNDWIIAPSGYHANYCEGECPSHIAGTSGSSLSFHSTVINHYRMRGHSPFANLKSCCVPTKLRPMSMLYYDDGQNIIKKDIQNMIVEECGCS

T3: GDF8 (UniProt O14793 267-375)
T3 construct: also called myostatin; Growth and Differentiation Factor-8
T3 sequence (looked up): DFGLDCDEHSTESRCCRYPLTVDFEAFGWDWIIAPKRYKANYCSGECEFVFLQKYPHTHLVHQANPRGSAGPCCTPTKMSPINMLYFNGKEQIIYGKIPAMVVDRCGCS


How the values were obtained:
GDF-11 [1] = target: T1, GDF-11; assay: cell-based or functional assay
Activin A [2] = target: T2, Activin A; assay: cell-based or functional assay
GDF-11 [3] = target: T1, GDF-11; assay: cell-based or functional assay; remark: listed apart in the source
Activin A [4] = target: T2, Activin A; assay: cell-based or functional assay; remark: listed apart in the source
GDF8 = target: T3, GDF8; assay: BiaCore SPR; ActRIIB-Fc captured by anti-hFc antibody, ligand injected
Procedure: The ActRIIB-Fc variants or wild-type protein were captured onto the system using an anti-hFc antibody. Ligands were injected and flowed over the captured receptor proteins.

IC50 (ng/mL), A-204 reporter gene assay, conditioned media (GDF-11 [1])	IC50 (ng/mL), A-204 reporter gene assay, conditioned media (Activin A [2])	IC50 (ng/mL), A-204 reporter gene assay, conditioned media (GDF-11 [3])	IC50 (ng/mL), A-204 reporter gene assay, conditioned media (Activin A [4])	kon (GDF8)	Binder
120 ng/mL	44 ng/mL	183 ng/mL	201 ng/mL		ActRIIb-hFc (R64, 20-131) (Fc fusion) GRGEAETRECIYYNANWELERTNQSGLERCEGEQDKRLHCYASWRNSSGTIELVKKGCWLDDFNCYDRQECVATEENPQVYFCCCEGNFCNERFTHLPEAGGPEVTYEPPPTGGGTHTCPPCPAPELLGGPSVFLFPPKPKDTLMISRTPEVTCVVVDVSHEDPEVKFNWYVDGVEVHNAKTKPREEQYNSTYRVVSVLTVLHQDWLNGKEYKCKVSNKALPVPIEKTISKAKGQPREPQVYTLPPSREEMTKNQVSLTCLVKGFYPSDIAVEWESNGQPENNYKTTPPVLDSDGSFFLYSKLTVDKSRWQQGNVFSCSVMHEALHNHYTQKSLSLSPGK
130 ng/mL	158 ng/mL				ActRIIb-hFc (R64, 20-128) (Fc fusion) GRGEAETRECIYYNANWELERTNQSGLERCEGEQDKRLHCYASWRNSSGTIELVKKGCWLDDFNCYDRQECVATEENPQVYFCCCEGNFCNERFTHLPEAGGPEVTYEPGGGTHTCPPCPAPELLGGPSVFLFPPKPKDTLMISRTPEVTCVVVDVSHEDPEVKFNWYVDGVEVHNAKTKPREEQYNSTYRVVSVLTVLHQDWLNGKEYKCKVSNKALPVPIEKTISKAKGQPREPQVYTLPPSREEMTKNQVSLTCLVKGFYPSDIAVEWESNGQPENNYKTTPPVLDSDGSFFLYSKLTVDKSRWQQGNVFSCSVMHEALHNHYTQKSLSLSPGK
		71 ng/mL	100 ng/mL		ActRIIb-hFc (R64, 22-131) (Fc fusion) GEAETRECIYYNANWELERTNQSGLERCEGEQDKRLHCYASWRNSSGTIELVKKGCWLDDFNCYDRQECVATEENPQVYFCCCEGNFCNERFTHLPEAGGPEVTYEPPPTGGGTHTCPPCPAPELLGGPSVFLFPPKPKDTLMISRTPEVTCVVVDVSHEDPEVKFNWYVDGVEVHNAKTKPREEQYNSTYRVVSVLTVLHQDWLNGKEYKCKVSNKALPVPIEKTISKAKGQPREPQVYTLPPSREEMTKNQVSLTCLVKGFYPSDIAVEWESNGQPENNYKTTPPVLDSDGSFFLYSKLTVDKSRWQQGNVFSCSVMHEALHNHYTQKSLSLSPGK
		60 ng/mL	43 ng/mL		ActRIIb-hFc (R64, 23-131) (Fc fusion) EAETRECIYYNANWELERTNQSGLERCEGEQDKRLHCYASWRNSSGTIELVKKGCWLDDFNCYDRQECVATEENPQVYFCCCEGNFCNERFTHLPEAGGPEVTYEPPPTGGGTHTCPPCPAPELLGGPSVFLFPPKPKDTLMISRTPEVTCVVVDVSHEDPEVKFNWYVDGVEVHNAKTKPREEQYNSTYRVVSVLTVLHQDWLNGKEYKCKVSNKALPVPIEKTISKAKGQPREPQVYTLPPSREEMTKNQVSLTCLVKGFYPSDIAVEWESNGQPENNYKTTPPVLDSDGSFFLYSKLTVDKSRWQQGNVFSCSVMHEALHNHYTQKSLSLSPGK
		69 ng/mL	105 ng/mL		ActRIIb-hFc (R64, 24-131) (Fc fusion) AETRECIYYNANWELERTNQSGLERCEGEQDKRLHCYASWRNSSGTIELVKKGCWLDDFNCYDRQECVATEENPQVYFCCCEGNFCNERFTHLPEAGGPEVTYEPPPTGGGTHTCPPCPAPELLGGPSVFLFPPKPKDTLMISRTPEVTCVVVDVSHEDPEVKFNWYVDGVEVHNAKTKPREEQYNSTYRVVSVLTVLHQDWLNGKEYKCKVSNKALPVPIEKTISKAKGQPREPQVYTLPPSREEMTKNQVSLTCLVKGFYPSDIAVEWESNGQPENNYKTTPPVLDSDGSFFLYSKLTVDKSRWQQGNVFSCSVMHEALHNHYTQKSLSLSPGK
		121 ng/mL	325 ng/mL		ActRIIb-hFc (R64, 21-131) (Fc fusion) RGEAETRECIYYNANWELERTNQSGLERCEGEQDKRLHCYASWRNSSGTIELVKKGCWLDDFNCYDRQECVATEENPQVYFCCCEGNFCNERFTHLPEAGGPEVTYEPPPTGGGTHTCPPCPAPELLGGPSVFLFPPKPKDTLMISRTPEVTCVVVDVSHEDPEVKFNWYVDGVEVHNAKTKPREEQYNSTYRVVSVLTVLHQDWLNGKEYKCKVSNKALPVPIEKTISKAKGQPREPQVYTLPPSREEMTKNQVSLTCLVKGFYPSDIAVEWESNGQPENNYKTTPPVLDSDGSFFLYSKLTVDKSRWQQGNVFSCSVMHEALHNHYTQKSLSLSPGK
87 ng/mL	32 ng/mL				ActRIIb-hFc (R64, 20-132) (Fc fusion) GRGEAETRECIYYNANWELERTNQSGLERCEGEQDKRLHCYASWRNSSGTIELVKKGCWLDDFNCYDRQECVATEENPQVYFCCCEGNFCNERFTHLPEAGGPEVTYEPPPTAGGGTHTCPPCPAPELLGGPSVFLFPPKPKDTLMISRTPEVTCVVVDVSHEDPEVKFNWYVDGVEVHNAKTKPREEQYNSTYRVVSVLTVLHQDWLNGKEYKCKVSNKALPVPIEKTISKAKGQPREPQVYTLPPSREEMTKNQVSLTCLVKGFYPSDIAVEWESNGQPENNYKTTPPVLDSDGSFFLYSKLTVDKSRWQQGNVFSCSVMHEALHNHYTQKSLSLSPGK
				369000 M⁻¹ s⁻¹	ActRIIb-hFc (R64, 20-134) (Fc fusion) GRGEAETRECIYYNANWELERTNQSGLERCEGEQDKRLHCYASWRNSSGTIELVKKGCWLDDFNCYDRQECVATEENPQVYFCCCEGNFCNERFTHLPEAGGPEVTYEPPPTAPTGGGTHTCPPCPAPELLGGPSVFLFPPKPKDTLMISRTPEVTCVVVDVSHEDPEVKFNWYVDGVEVHNAKTKPREEQYNSTYRVVSVLTVLHQDWLNGKEYKCKVSNKALPVPIEKTISKAKGQPREPQVYTLPPSREEMTKNQVSLTCLVKGFYPSDIAVEWESNGQPENNYKTTPPVLDSDGSFFLYSKLTVDKSRWQQGNVFSCSVMHEALHNHYTQKSLSLSPGK
